Assay results reported in patent publication US8535928B2, “Protease and use thereof” (Osaka University, priority 2008, dated 2013).

How the values were obtained:
[1] = substrate: C[C@H](NC(=O)CCC(=O)O)C(=O)N[C@@H](C)C(=O)N1CCC[C@H]1C(=O)N[C@@H](Cc1ccccc1)C(=O)Nc1ccc([N+](=O)[O-])cc1; test: Rate parameters of Tk-SP with Suc-AAPF-pNA (Michaelis-Menten); assay type: biochemical, Thermococcus kodakaraensis KOD1; settings: substrate 0.01 to 2 mM
Experimental: (§1) For examination of the pH dependence and the buffer dependence of the Tk-SP, enzyme reactions were performed using acetate buffers (pH 4.5, 5.0, 5.2, 5.4 and 5.6), MES buffers (pH 5.5, 6.0, 6.5 and 7.0), HEPES buffers (pH 7.0 and 7.5), Tris-HCl buffers (pH 7.0, 7.5, 8.0, 8.5 and 9.0), glycine-NaOH buffers (pH 8.5, 9.0, 9.5 and 10.0) and CAPS-NaOH buffers (pH 9.0, 9.5, 10.0, 10.5, 11.0 and 11.5) in the following procedure. 100 μl of a reaction mixture containing a 50 mM buffer and 2 mM Suc-AAPF-pNA (synthetic substrate) was incubated at 20° C. for 5 minutes. To this, 0.1 μg of the Tk-SP was added and the reaction mixture was further incubated at 20° C. for 10 minutes. The reaction was stopped by addition of 10 μl of acetic acid, and then the amount of p-nitroaniline produced from the synthetic substrate Suc-AAPF-pNA was determined by use of the absorption coefficient of 8900 M^−1 cm^−1 from the absorbance at 410 nm in an ultraviolet spectrophotometer (Beckman model DU640). The amount of the enzyme which catalyzes the production of 1 μmol of p-nitroaniline per minute was defined as “one unit.” The enzyme activity per milligram of the protein was defined as specific activity.
(§2) By use of, as a substrate, Suc-AAPF-pNA at various concentrations ranging from 0.01 to 2 mM, the specific activity of the Tk-SP was measured at 20 and 80° C. The measurement procedure was the same as that of Example 2. The obtained values were applied to the Michaelis-Menten equation for calculation of the rate parameters. For comparison, the specific activity of a known thermostable protease, Tk-subtilisin (see nonpatent literature 1) was similarly measured and then the rate parameters thereof were calculated.

[2] = substrate: C[C@H](NC(=O)CCC(=O)O)C(=O)N[C@@H](C)C(=O)N1CCC[C@H]1C(=O)N[C@@H](Cc1ccccc1)C(=O)Nc1ccc([N+](=O)[O-])cc1; test: Rate parameters of Tk-subtilisin with Suc-AAPF-pNA (Michaelis-Menten), comparison; assay type: biochemical, Thermococcus kodakaraensis KOD1; settings: substrate 0.01 to 2 mM
Experimental: as §1, §2

Row | Protein | Km ([1]; other: 20° C., 20.0 °C) [mM] | Vmax ([1]; other: 20° C., 20.0 °C) [U/mg] | kcat ([1]; other: 20° C., 20.0 °C) [S^−1] | Km ([1]; other: 80° C., 80.0 °C) [mM] | Vmax ([1]; other: 80° C., 80.0 °C) [U/mg] | kcat ([1]; other: 80° C., 80.0 °C) [S^−1] | Km ([2]; other: 20° C., 20.0 °C) [mM] | Vmax ([2]; other: 20° C., 20.0 °C) [U/mg] | kcat ([2]; other: 20° C., 20.0 °C) [S^−1] | Km ([2]; other: 80° C., 80.0 °C) [mM] | Vmax ([2]; other: 80° C., 80.0 °C) [U/mg] | kcat ([2]; other: 80° C., 80.0 °C) [S^−1]
1 | Thermococcus kodakaraensis KOD1 protease Tk-SP (mature subtilisin-like serine protease, SEQ ID NO: 1 or SEQ ID NO: 3) (Thermococcus kodakarensis KOD1) (protein, C-terminus at 562 or 563) VETEGLDESAAQVMATNMWNLGYDGSGITIGIIDTGIDASHPDLQGKVIGWVDFVNGKTTPYDDNGHGTHVASIAAGTGAASNGKYKGMAPGAKLVGIKVLNGQGSGSISDIINGVDWAVQNKDKYGIKVINLSLGSSQSSDGTDSLSQAVNNAWDAGLVVVVAAGNSGPNKYTVGSPAAASKVITVGAVDKYDVITDFSSRGPTADNRLKPEVVAPGNWIIAARASGTSMGQPINDYYTAAPGTSMATPHVAGIAALLLQAHPSWTPDKVKTALIETADIVKPDEIADIAYGAGRVNAYKAAYYDNYAKLTFTGYVSNKGSQSHQFTISGAGFVTATLYWDNSGSDLDLYLYDPNGNQVDYSYTAYYGFEKVGYYNPTAGTWTIKVVSYSGSANYQVDVVSDGSLGQPSGGGSEPSPSPSPEPTV | 0.117 | 2.312 | 1.704 | 0.416 | 34.84 | 25.668 |  |  |  |  |  | 
2 | Thermococcus kodakaraensis KOD1 Tk-subtilisin (Tk-sub) (Thermococcus kodakarensis KOD1) (protein) GKPSWLGGGSTQPAQTIPWGIERVKAPSVWSITDGSVSVIQVAVLDTGVDYDHPDLAANIAWCVSTLRGKVSTKLRDCADQNGHGTHVIGTIAALNNDIGVVGVAPGVQIYSVRVLDARGSGSYSDIAIGIEQAILGPDGVADKDGDGIIAGDPDDDAAEVISMSLGGPADDSYLYDMIIQAYNAGIVIVAASGNEGAPSPSYPAAYPEVIAVGAIDSNDNIASFSNRQPEVSAPGVDILSTYPDDSYETLMGTSMATPHVSGVVALIQAAYYQKYGKILPVGTFDDISKNTVRGILHITADDLGPTGWDADYGYGVVRAALAVQAALG |  |  |  |  |  |  | 4.00 | 38.00 | 26.00 | 8.00 | 420.00 | 290.00
